From the supplement of paper PMC7877785
± gives the uncertainty stated by the source.

Test: self-splicing fitness, log relative to wild type (ln ratio); higher = more splicing; Tetrahymena group I intron in knt gene, E. coli kanamycin selection, DiMSum; sequences stand for … in CUCUCU…GGAGGGAAAAGUUAUCAGGCAUGCACCUGGUAGCUAGUCUUUAAACCAAUAGAUUGCAUCGGUUUAAAAGGCAAGACCGUCAAAUUGCGGGAAAGGGGUCAACAGCCGUUCAGUACCAAGUCUCAGGGGAAACUUUGAGAUGGCCUUGCAAAGGGUAUGGUAAUAAGCUGACGGACAUGGUCCUAACCACGCAGCCAAGUCCUAAGUCAACAGAUCUUCUGUUGAUAUGGAUGCAGUUCACAGACUAAAUGUCGGUCGGGGAAGAUGUAUUCUUCUCAUAAGAUAUAGUCGGACCUCUCCUUAAUGGGAGCUAGCGGAUGAAGUGAUGCAACACUGGAGCCGCUGGGAACUAAUUUGUAUGCGAAAGUAUAUUGAUUAGUUUUGGAGUACUCGUGGUCG
Procedure, shortened: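 A randomised library covering all eight P1ex-region intron nucleotides was built with the intron in the knt kanamycin-resistance gene on pET-22b(+) and held in E. coli BL21(DE3). Cells were grown overnight at 37°C or 30°C on LB agar, with or without 25 μg/mL kanamycin, plus 100 μg/mL carbenicillin, 50 μM IPTG and 0.2% rhamnose, and pooled colonies were amplicon-sequenced on an Illumina HiSeq 2500. DiMSum fitness is the error-weighted combination of wild-type-normalised replicate fold changes, kanamycin versus none.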

| Sequence | self-splicing fitness (ln) (30 °C) | self-splicing fitness (ln) (37 °C) |
| --- | --- | --- |
| CUACAGCAAUAUUACGACGA | -2.65 ± 0.15 | -2.02 ± 0.18 |
| CUACAGCAAUAUUACGAGGC |  | -1.35 ± 0.3 |
| CUACAGCAAUAUUACGAGUG | -0.714 ± 0.047 | -0.418 ± 0.068 |
| CUACAGCAAUAUUACGAUCA | -1.82 ± 0.17 | -1.49 ± 0.2 |
| CUACAGCAAUAUUACGAUUU | -4.36 ± 0.22 | -1.95 ± 0.14 |
| CUACAGCAAUAUUACGCCGG | -2.19 ± 0.13 | -1.26 ± 0.13 |
| CUACAGCAAUAUUACGCGUC | -3.92 ± 0.26 | -2.77 ± 0.24 |
| CUACAGCAAUAUUACGCGUG | -1.83 ± 0.076 | -1.03 ± 0.089 |
| CUACAGCAAUAUUACGCUAC | -3.78 ± 0.22 | -2.25 ± 0.24 |
| CUACAGCAAUAUUACGCUAU | -4.01 ± 0.19 | -2.6 ± 0.18 |
| CUACAGCAAUAUUACGCUUU | -3.79 ± 0.25 | -2.38 ± 0.16 |
| CUACAGCAAUAUUACGGAAC | -4.6 ± 0.34 | -3.47 ± 0.35 |
| CUACAGCAAUAUUACGGACG | -0.196 ± 0.072 | 0.601 ± 0.1 |
| CUACAGCAAUAUUACGGACU | -1.76 ± 0.17 | -1.75 ± 0.19 |
| CUACAGCAAUAUUACGGCAU | -3.6 ± 0.23 | -2.34 ± 0.23 |
| CUACAGCAAUAUUACGGCUU | -2.38 ± 0.15 |  |
| CUACAGCAAUAUUACGGGAA | -2.88 ± 0.24 | -2.28 ± 0.23 |
| CUACAGCAAUAUUACGGGGC | -2.95 ± 0.2 | -2.57 ± 0.22 |
| CUACAGCAAUAUUACGGUCC | -2.72 ± 0.18 | -2.15 ± 0.24 |
| CUACAGCAAUAUUACGGUCG | -0.256 ± 0.068 | 0.417 ± 0.082 |

| Sequence | self-splicing fitness (ln) (30 °C) | self-splicing fitness (ln) (37 °C) |
| --- | --- | --- |
| CUACAGCAAUAUUACGUAGA | -4.4 ± 0.21 | -2.56 ± 0.14 |
| CUACAGCAAUAUUACGUAGG | -1.39 ± 0.059 | -1.14 ± 0.093 |
| CUACAGCAAUAUUACGUCCG | -0.955 ± 0.095 | 0.368 ± 0.12 |
| CUACAGCAAUAUUACGUUGA | -3.13 ± 0.17 | -3.35 ± 0.21 |
| CUAGAGCAAUAUUACGACAG | 0.262 ± 0.087 | 0.734 ± 0.12 |
| CUAGAGCAAUAUUACGAGCA |  | -3.27 ± 0.31 |
| CUAGAGCAAUAUUACGAGGA | -2.99 ± 0.2 | -2.53 ± 0.28 |
| CUAGAGCAAUAUUACGAUCG | 0.45 ± 0.066 | 0.245 ± 0.088 |
| CUAGAGCAAUAUUACGAUCU | -4.31 ± 0.34 | -2.29 ± 0.34 |
| CUAGAGCAAUAUUACGAUGG | -0.193 ± 0.11 | 0.418 ± 0.14 |
| CUAGAGCAAUAUUACGCAAA | -2.62 ± 0.27 | -1.27 ± 0.4 |
| CUAGAGCAAUAUUACGCAGU | -2.58 ± 0.12 | -3.17 ± 0.2 |
| CUAGAGCAAUAUUACGCAUU | -3.2 ± 0.18 | -2.2 ± 0.25 |
| CUAGAGCAAUAUUACGCCAU | -3.39 ± 0.19 | -3.11 ± 0.29 |
| CUAGAGCAAUAUUACGCCGC | -2.52 ± 0.37 |  |
| CUAGAGCAAUAUUACGCGAU | -0.892 ± 0.084 | -0.253 ± 0.11 |
| CUAGAGCAAUAUUACGCUAC | -2.83 ± 0.27 |  |
| CUAGAGCAAUAUUACGCUAU |  | -2.47 ± 0.48 |
| CUAGAGCAAUAUUACGGAAG | -0.402 ± 0.07 | -0.264 ± 0.1 |
| CUAGAGCAAUAUUACGGAGA | -2.51 ± 0.26 | -2.51 ± 0.48 |
